This is an account of results in publication PMC3661714 (Circulation, 2013).

Molecules are shown by their SMILES. Starred links: 1 amine or outer side, 2 acyl side, 3 side chain; linkers in the order of their positions; H or OH if unused. Residues, ends and D or L forms follow the SMILES beside them. Groups on a side chain read outwards from the residue. *: point of attachment. X1 = FCCOC1CCCC2C(=CNN=C2c2ccc(CN*)cc2)CC1; Glutaryl = O=C(CCCC(=O)[*:2])[*:1]

The nature of series [1]: in vivo. To be noted: B6, mouse, iv, SEM.
The conditions of series [2]: B6 mice, injected i.v., n = 5, R^2 = 0.95, mean±SEM.
Series [3] deals with T1, plasma transglutaminase factor XIII (FXIII) (Mus musculus, UniProt Q8BH61).
T1 sequence (Q8BH61 1-732): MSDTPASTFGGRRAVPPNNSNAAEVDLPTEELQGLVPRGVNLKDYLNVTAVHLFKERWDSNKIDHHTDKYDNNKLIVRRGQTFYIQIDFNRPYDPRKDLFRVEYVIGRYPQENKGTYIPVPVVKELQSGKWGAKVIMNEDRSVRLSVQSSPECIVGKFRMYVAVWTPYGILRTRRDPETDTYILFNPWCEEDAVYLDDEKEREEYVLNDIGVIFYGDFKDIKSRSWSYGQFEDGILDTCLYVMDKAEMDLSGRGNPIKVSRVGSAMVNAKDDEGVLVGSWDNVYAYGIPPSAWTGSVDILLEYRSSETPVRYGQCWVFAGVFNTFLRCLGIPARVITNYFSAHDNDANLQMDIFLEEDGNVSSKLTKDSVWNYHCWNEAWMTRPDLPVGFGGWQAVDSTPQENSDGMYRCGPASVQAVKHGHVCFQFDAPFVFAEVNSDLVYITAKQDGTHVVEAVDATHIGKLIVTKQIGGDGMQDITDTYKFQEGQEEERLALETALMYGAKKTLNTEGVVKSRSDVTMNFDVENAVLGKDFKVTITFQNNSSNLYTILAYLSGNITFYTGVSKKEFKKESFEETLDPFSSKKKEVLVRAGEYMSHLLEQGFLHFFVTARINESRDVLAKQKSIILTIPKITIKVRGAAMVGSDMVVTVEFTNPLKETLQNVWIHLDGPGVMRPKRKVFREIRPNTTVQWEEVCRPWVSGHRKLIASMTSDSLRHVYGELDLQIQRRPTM
As to the kind of experiment: Scintillation counting of 18F-FXIII signal in hearts with or without MI. It is filed as in vivo. To be noted: p<0.05.

One may read the tissue uptake as the percentage of the injected dose found per gram of tissue. A high value points to high uptake. For the molecule `CC(=O)NCC(=O)N[C@@H](CC(N)=O)C(=O)N[C@@H](CCC(N)=O)C(=O)N[C@@H](CCC(=O)O)C(=O)N[C@@H](CCC(N)=O)C(=O)N[C@H](C(=O)N[C@@H](CO)C(=O)N1CCC[C@H]1C(=O)N[C@@H](CC(C)C)C(=O)N[C@H](C(=O)N[C@@H](CC(C)C)C(=O)N[C@@H](CC(C)C)C(=O)N[C@@H](CCCCNC(=O)CCCC(=O)NCc1ccc(C2=NNC=C3CCC(OCCF)CCCC32)cc1)C(=O)N[C@@H](Cc1c[nH]c2ccccc12)C(=O)O)[C@@H](C)O)C(C)C` (stereo partly drawn) [18F-FXIII] (Ac-GNQEQVSPLTLLK([Glutaryl-X1])W-OH; N-terminus and C-terminus assumed), the tissue uptake at 1.25 h in series [1] (blood) was determined as 0.49 ± 0.03 %ID/g; in series [1] (bone), 0.31 ± 0.03 %ID/g; in series [1] (fat), 0.17 ± 0.01 %ID/g; in series [1] (heart), 0.23 ± 0.03 %ID/g; in series [1] (intestines), 0.25 ± 0.04 %ID/g; in series [1] (kidney), 1.26 ± 0.06 %ID/g. For the same molecule, the tissue uptake at 1.25 h in series [1] (liver) worked out at 2.83 ± 0.22 %ID/g; in series [1] (lymph node) it was 0.6 ± 0.1 %ID/g; in series [1] (muscle) it was 0.15 ± 0.01 %ID/g; in series [1] (skin) it was 0.31 ± 0.05 %ID/g; in series [1] (spleen), 0.49 ± 0.05 %ID/g; in series [1] (tail), 0.41 ± 0.03 %ID/g. The same molecule yielded a blood half-life in series [2] of 13.2 ± 0.94 min. Further, the “Signal intensity in hearts of FXIII−/− mice with MI (specificity)” value in series [3] (day 4 after MI, comparable to non-infarcted wild-type B6 and FXIII−/− mice) is listed as “significantly lower”. Also, in series [3] (day 4 after coronary ligation, n = 4-5 per group), the “18F-FXIII signal in the heart, B6 mice with MI compared to control mice” value is on record as “significantly higher”.
